IntAct's records for PubMed 18583962

B1: LIM domain-binding protein 1 (Mus musculus), P70662 (parent)
chain: MSVGCACPGCSSKSFKLYSPKEPPNGNAFPPFHPGTMLDRDVGPTPMYPPTYLEPGIGRHTPYGNQTDYRIFELNKRLQNWTEECDNLWWDAFTTEFFEDDAMLTITFCLEDGPKRYTIGRTLIPRYFRSIFEGGATELYYVLKHPKEAFHSNFVSLDCDQGSMVTQHGKPMFTQVCVEGRLYLEFMFDDMMRIKTWHFSIRQHRELIPRSILAMHAQDPQMLDQLSKNITRCGLSNSTLNYLRLCVILEPMQELMSRHKTYSLSPRDCLKTCLFQKWQRMVAPPAEPARQQPSKRRKRKMSGGSTMSSGGGNTNNSNSKKKSPASTFALSSQVPDVMVVGEPTLMGGEFGDEDERLITRLENTQFDAANGIDDEDSFNNSPALGANSPWNSKPPSSQESKSENPTSQASQ
partner: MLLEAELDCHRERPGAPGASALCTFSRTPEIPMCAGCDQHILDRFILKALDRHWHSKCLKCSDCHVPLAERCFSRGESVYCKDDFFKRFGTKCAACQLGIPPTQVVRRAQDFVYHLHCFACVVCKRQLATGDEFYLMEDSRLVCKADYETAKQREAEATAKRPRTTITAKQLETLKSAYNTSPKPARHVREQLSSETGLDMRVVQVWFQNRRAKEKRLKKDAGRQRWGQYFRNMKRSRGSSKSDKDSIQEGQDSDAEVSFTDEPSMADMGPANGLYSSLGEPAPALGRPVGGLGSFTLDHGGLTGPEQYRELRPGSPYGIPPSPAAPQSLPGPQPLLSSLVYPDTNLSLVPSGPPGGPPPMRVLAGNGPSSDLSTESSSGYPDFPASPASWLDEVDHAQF
B2: Insulin gene enhancer protein ISL-1 (Mus musculus), P61372 (parent)
chain: MGDMGDPPKKKRLISLCVGCGNQIHDQYILRVSPDLEWHAACLKCAECNQYLDESCTCFVRDGKTYCKRDYIRLYGIKCAKCSIGFSKNDFVMRARSKVYHIECFRCVACSRQLIPGDEFALREDGLFCRADHDVVERASLGAGDPLSPLHPARPLQMAAEPISARQPALRPHVHKQPEKTTRVRTVLNEKQLHTLRTCYAANPRPDALMKEQLVEMTGLSPRVIRVWFQNKRCKDKKRSIMMKQLQQQQPNDKTNIQGMTGTPMVAASPERHDGGLQANPVEVQSYQPPWKVLSDFALQSDIDQPAFQQLVNFSEGGPGSNSTGSEVASMSSQLPDTPNSMVASPIEA
partner: B1 partner
B3: LIM domain-binding protein 1 (Mus musculus), P70662 (parent)
chain: B1 chain
partner: B2 chain

Variants of: B1
Conditions: with lhx3_mouse Lhx3, P50481

effect of a mutation on the interaction	Variant
disrupting interaction	L345A

Variants of: B1
Conditions: with lhx3_mouse Lhx3, P50481
Remark: another data set of the same source

effect of a mutation on the interaction	Variant
disrupting interaction	V339A

Variants of: B1
Conditions: with lhx3_mouse Lhx3, P50481
Remark: another data set of the same source

effect of a mutation on the interaction	Variant
disrupting interaction	T344A

Variants of: B1
Conditions: with lhx3_mouse Lhx3, P50481
Remark: another data set of the same source

effect of a mutation on the interaction	Variant
disrupting interaction	I358A
disrupting interaction	M338A

Variants of: B2
Conditions: with lhx3_mouse Lhx3, P50481

effect of a mutation on the interaction	Variant
disrupting interaction	A267G

Variants of: B2
Conditions: with lhx3_mouse Lhx3, P50481
Remark: another data set of the same source

effect of a mutation on the interaction	Variant
disrupting interaction	G262A
disrupting interaction	P264A
disrupting interaction	T263A

Variants of: B2
Conditions: with lhx3_mouse Lhx3, P50481
Remark: another data set of the same source

effect of a mutation on the interaction	Variant
disrupting interaction	M265A

Variants of: B3
Conditions: with isl1_mouse Isl1, P61372

effect of a mutation on the interaction	Variant
disrupting interaction	T359A

Variants of: B3
Conditions: with isl1_mouse Isl1, P61372
Remark: another data set of the same source

effect of a mutation on the interaction	Variant
disrupting interaction	R356A;L357A;I358A

Variants of: B3
Conditions: with isl1_mouse Isl1, P61372
Remark: another data set of the same source

effect of a mutation on the interaction	Variant
decreasing interaction	T359A;R360A;L361A
